Drawing on paper PMC4066749, “A sequence-based approach for prediction of CsrA/RsmA targets in bacteria with experimental validation in Pseudomonas aeruginosa”, this text covers binding result and Kd for 2 molecules.

The target of data set [1] is T1, RsmA-R44A (UniProt O69078 1-61, R44A). In words: analytical SEC; binding virtually eliminated; 50 uM protein, 25 uM RNA; 50 mM NaCl, 25 mM potassium phosphate pH 7.0; ITC at 298 K (125 uM RNA into 5-10 uM protein); SEC on Superdex 75 with 50 uM protein and 25 uM RNA, temperature not stated. The note with it: protein: recombinant; chain copies: 2; hairpin.
The target in data set [2] is T2, RsmA (UniProt O69078 1-61). As to the kind of experiment: ITC; 298 K; 1:1 single-site fit; 50 mM NaCl, 25 mM potassium phosphate pH 7.0; ITC at 298 K (125 uM RNA into 5-10 uM protein); SEC on Superdex 75 with 50 uM protein and 25 uM RNA, temperature not stated. The note with it: protein: recombinant; tags: His tag; chain copies: 2; hairpin. For orientation: In ITC the heat of successive injections is recorded.

The target of data set [3] is T2, RsmA. As to the kind of experiment: analytical SEC; 50 uM protein, 25 uM RNA. The note with it: protein: recombinant; tags: His tag; chain copies: 2; unstructured.
For data set [4], the target named is T1, RsmA-R44A. As to the kind of experiment: analytical SEC; no significant interaction, RNA largely unbound. As to conditions: protein: recombinant; chain copies: 2; unstructured.

CCCCGAAGGAUCGGGG (structured_RNA) [RsmZ-2 (RsmZ stem-loop 2)]: in the data set with RsmA-R44A [1], the binding result is reported as “no binding”. Moreover, the Kd (as a rule, the constant that tells how readily two partners part at equilibrium) with RsmA [2] turned out to be 276 ± 25 nM.
For the molecule GAAGAGGAGCUUUCAUG (ssRNA) [algU RBS RNA], the binding result is given as “binds” in the data set with RsmA [3] and “no binding” with RsmA-R44A [4].
